Experimental data reported in publication PMC4100148.
One block for each substance: values may come before it.

Experiments:
[1] = target: CFP-SelP-H (His-rich domain of selenoprotein P fused to CFP) (human) (UniProt P49908); experiment: FRET or BRET; acceptor (receptor) photobleaching method; HEK293T cells co-transfected with CFP and YFP plasmids; ROI bleached at 515 nm, donor imaged at 405 nm excitation; E = 1 - I(prebleaching)/I(postbleaching)
[2] = target: SelP-H (His-rich domain of selenoprotein P), purified (human) (UniProt P49908); experiment: ITC; MicroCal iTC-200, 25 °C, Tris buffer (50 mM, pH 7.4); 1.3 mM Tub-C titrated into 228 μM SelP-H, 20 injections of 2 μL; sequential binding model (n = 2)
[3] = target: CFP-SelP' (Sec to Cys mutant of selenoprotein P fused to enhanced cyan fluorescence protein) (human) (UniProt P49908); experiment: FRET or BRET; acceptor (receptor) photobleaching method; HEK293T cells co-transfected with CFP and YFP plasmids; ROI bleached at 515 nm, donor imaged at 405 nm excitation; E = 1 - I(prebleaching)/I(postbleaching)
[4] = target: CFP-SelP' (Sec to Cys mutant of selenoprotein P fused to enhanced cyan fluorescence protein) (human) (UniProt P49908); experiment: FRET or BRET; sensitized emission method; HEK293T cells co-transfected with CFP (donor) and YFP (receptor) plasmids, confocal microscope 48 h after transfection, excitation 405 and 515 nm

FRET efficiency E [1]: 22.8%
Substance: YFP-Tub-C (C-terminal domain of α-tubulin, the last 42 residues, fused to YFP) (from UniProt Q71U36 1-451) (domain or fragment)

association constant K1 (sequential binding model, first site) [2]: 2100 M⁻¹
association constant K2 (sequential binding model, second site) [2]: 1500 M⁻¹
dH1 (sequential binding model, first site) [2]: -1.8 kcal/mol
dH2 (sequential binding model, second site) [2]: 6.9 kcal/mol
stoichiometry N [2]: 2
Substance: Tub-C (the last 42 residues of α-tubulin), purified (from UniProt Q71U36 1-451) (domain or fragment)

FRET efficiency E (average) [3]: 21.8%
FRET efficiency E (cell 1) [3]: 17.6%
FRET efficiency E (cell 2) [3]: 14.1%
FRET efficiency E (cell 3) [3]: 12.2%
FRET efficiency E (cell 4) [3]: 31.5%
FRET efficiency E (cell 5) [3]: 20%
FRET efficiency E (cell 6) [3]: 26.7%
FRET efficiency E (cell 7) [3]: 19.2%
FRET efficiency E (cell 8) [3]: 17.9%
FRET efficiency E (cell 9) [3]: 35.6%
FRET efficiency E (cell 10) [3]: 20.2%
FRET efficiency E (cell 11) [3]: 25%
Substance: YFP-Tub (α-tubulin fused to yellow fluorescence protein) (from UniProt Q71U36 1-451) (natural protein)
FRET efficiency E (average) [4]: 21.3%
FRET efficiency E (cell 1) [4]: 19.7%
FRET efficiency E (cell 2) [4]: 18.7%
FRET efficiency E (cell 3) [4]: 32.6%
FRET efficiency E (cell 4) [4]: 17.7%
FRET efficiency E (cell 5) [4]: 18%
